Paper PMC5395669

How the values were obtained:
[1] = biological target: MBP-RctB F311P (Vibrio cholerae); assay: AUC
[2] = biological target: MBP-RctB F316P (Vibrio cholerae); assay: AUC
[3] = biological target: MBP-RctB K312P (Vibrio cholerae); assay: AUC
[4] = biological target: MBP-RctB S313P (Vibrio cholerae); assay: AUC
[5] = biological target: MBP-tagged RctB (wild type) (Vibrio cholerae (N16961 DNA as template)); assay: AUC
[6] = biological target: DnaK (added to the in vitro Co-IP reactions) (UniProt P0A6Y8); assay: Co-IP (amylose magnetic beads, Western blot with α-DnaK); conditions: 1 µM RctB, 1 µM DnaJ, 2 µM DnaK, 100 µM ATP, buffer A pH 7.4, 4°C
[7] = biological target: RctB145–470 tryptic fragment (Vibrio cholerae); assay: AUC; sedimentation velocity, 50,000 rpm, 20°C; 20 mM Tris pH 8.0, 300 mM NaCl, 1 mM TCEP, 1 mM EDTA, 5 mM MgCl2; multiple concentrations (Fig. S4A)

Substance	ratio to parent [6]	other results
MBP-RctB F311P (natural protein)	–	stoichiometry N [1]: 2
MBP-RctB F316P (natural protein)	–	stoichiometry N [2]: 2
MBP-RctB K312P (natural protein)	–	stoichiometry N [3]: 2
MBP-RctB S313P (natural protein)	–	stoichiometry N [4]: 2
MBP-tagged RctB (wild type) (natural protein)	–	stoichiometry N [5]: 2
MBP-tagged RctB (wild type) H157A; E158A; H159A; G160A; L161A; N162A; T163A	0.3	–
MBP-tagged RctB (wild type) L129A; V130A; T131A; E132A; S133A; V134A; K135A	0.9	–
MBP-tagged RctB (wild type) P164A; P165A; M167A; K168A; D169A; E170A	0.6	–
MBP-tagged RctB (wild type) Q136A; N137A; E138A; K139A; Q140A; K141A; R142A	0.8	–
MBP-tagged RctB (wild type) Q150A; V151A; N152A; Q153A; R154A; L155A; L156A	0.4	–
MBP-tagged RctB (wild type) S143A; K144A; L146A; Q148A; T149A	0.8	–
RctB145–470 tryptic fragment (domain or fragment)	–	stoichiometry N [7]: 2
